In assay [1] the target is T1, purified untagged wild-type FliW (FliW^WT) (B. subtilis, UniProt P96503 1-143).
T1 construct: FliW, Bacillus subtilis; also called His6-SUMO-FliW^WT before cleavage; source: E. coli Rosetta gami, purified (Ni-NTA, size exclusion chromatography, SUMO tag cleaved)
T1 sequence (looked up): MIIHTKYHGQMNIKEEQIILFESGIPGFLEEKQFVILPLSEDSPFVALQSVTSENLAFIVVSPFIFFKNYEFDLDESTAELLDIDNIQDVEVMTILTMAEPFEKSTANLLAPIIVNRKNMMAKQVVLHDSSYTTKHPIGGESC
Description: pull-down; 0.25 uM GST-CsrA (WT or D41K) on Glutathione-Sepharose beads; FliW at 0.125, 0.167, 0.25, 0.333 and 0.5 uM, 2 h at 4 C in T(0.1) buffer (25 mM Tris-HCl pH 8.0, 20% glycerol, 100 mM NaCl, 1 mM DTT, 1 mg/mL BSA); 4 washes; supernatant and pellet on Western blots. The conditions noted are these: both partners purified. Background: A western blot detects proteins with antibodies after separation by electrophoresis.

Another assay concerns the target T2, purified FliW^K123E (B. subtilis, UniProt P96503 1-143, K123E).
T2 construct: FliW, Bacillus subtilis, with K123E; cloned in pTB146 (SapI/XhoI); source: E. coli Rosetta gami, purified (Ni-NTA, size exclusion chromatography, SUMO tag cleaved)
T2 sequence (looked up): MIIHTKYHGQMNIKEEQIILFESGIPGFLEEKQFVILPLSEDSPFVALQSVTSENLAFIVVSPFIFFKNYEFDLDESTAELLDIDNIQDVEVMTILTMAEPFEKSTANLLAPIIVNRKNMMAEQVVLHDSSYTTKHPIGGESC
The description is as above. The conditions noted are these: both partners purified.

B1: GST tagged CsrA (GST-CsrA^WT) (natural protein, B. subtilis, UniProt P33911 1-74, looked up)
chain: MLVLSRKINEAIQIGADIEVKVIAVEGDQVKLGIDAPKHIDIHRKEIYLTIQEENNRAAALSSDVISALSSQKK
notes: CsrA, Bacillus subtilis, fused to GST; The D41K form was cloned in pGEX-2TK; source: E. coli Rosetta gami, purified (Glutathione-Sepharose, size exclusion chromatography)
Turning to B1, the binding result in assay [1] was “binds”.

B2: GST-CsrA^D41K (natural protein, B. subtilis, UniProt P33911 1-74, looked up)
chain: MLVLSRKINEAIQIGADIEVKVIAVEGDQVKLGIDAPKHIKIHRKEIYLTIQEENNRAAALSSDVISALSSQKK
notes: CsrA, Bacillus subtilis, with D41K, translational fusion to the GST tag in pGEX-2TK (BamHI/EcoRI); source: E. coli Rosetta gami, purified (Glutathione-Sepharose, size exclusion chromatography)
Consider B2, for which the binding result with purified FliW^K123E is reported as “binds”.

These data come from doi:10.1101/2020.07.02.184341, “Contact with the CsrA core is required for allosteric inhibition by FliW in Bacillus subtilis” (bioRxiv, 2020).
